Measurements published in patent publication US20180140690A1.

Key:
[1] = target: XC-chemokine receptor 1 (XCR1) on mouse dermal dendritic cells (mouse) (UniProt Q9R0M1); experiment: flow cytometry of ear skin cells 24 h after laser-assisted delivery of the vaccibody in vivo; staining depended on XCR1 expression (Xcr1-/- mice)
[2] = target: XC-chemokine receptor 1 (XCR1) on mouse dermal dendritic cells (mouse) (UniProt Q9R0M1); experiment: cell-based or functional assay

Chain of UniProt Q9R0M1 (Q9R0M1 whole entry): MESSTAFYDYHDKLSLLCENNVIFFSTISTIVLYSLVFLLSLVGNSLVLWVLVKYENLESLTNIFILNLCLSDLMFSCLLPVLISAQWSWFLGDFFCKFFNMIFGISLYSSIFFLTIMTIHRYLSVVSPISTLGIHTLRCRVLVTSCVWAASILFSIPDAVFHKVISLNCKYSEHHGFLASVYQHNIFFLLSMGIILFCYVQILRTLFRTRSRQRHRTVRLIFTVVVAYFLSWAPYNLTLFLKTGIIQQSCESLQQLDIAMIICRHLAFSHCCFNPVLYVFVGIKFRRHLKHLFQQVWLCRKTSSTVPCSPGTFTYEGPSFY

Substance | percent of XCR1+ dermal DCs stained [1] | OT-I CD8+ T cell proliferation in ear-draining lymph nodes (CTV dilution), against free OVA on a per molecule basis [2] | OT-II CD4+ T cell proliferation in ear-draining lymph nodes (CTV dilution), against free OVA on a per molecule basis [2]
XCL1-mCherry vaccibodies (from UniProt P47993 22-114; P01860 99-377) | 15% | – | –
XCL1-OVA vaccibodies (from UniProt P47993 22-114; P01860 99-377; P01012 2-386) | – | 15 times | 3 times
